Changes are numbered by the printed parent chain. Names may count otherwise.
T1: PUF4 RNA-binding domain (Saccharomyces cerevisiae, UniProt P25339 537-888)
T1 sequence: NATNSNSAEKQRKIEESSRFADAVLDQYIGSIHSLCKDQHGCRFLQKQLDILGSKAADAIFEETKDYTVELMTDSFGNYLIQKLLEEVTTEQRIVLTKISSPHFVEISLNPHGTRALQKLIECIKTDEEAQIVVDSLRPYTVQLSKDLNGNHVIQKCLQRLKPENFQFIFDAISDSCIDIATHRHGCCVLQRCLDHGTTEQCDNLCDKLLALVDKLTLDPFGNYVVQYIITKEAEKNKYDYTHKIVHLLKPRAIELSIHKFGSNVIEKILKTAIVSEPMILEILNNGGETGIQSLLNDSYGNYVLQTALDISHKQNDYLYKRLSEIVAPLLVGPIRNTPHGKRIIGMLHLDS

B1: Ia_S4_P4E.1_K4.1_C4.1_H4.1_[A4G]_A4.1_F4.1_T4.1 (ssRNA)
RNA: UUUGACAACUGAUCGUUCUUUCUUGUGUAUUAUUCUUUCUCGAUCAGUUGUCUUU
B2: Ia_S4_P4E.1_K4.1_C4.1_H4.1_A4.1_[T5C]_F4.1_T4.1 (ssRNA)
RNA: B1 RNA with G27A, U28C
B3: Ia_S4_P4E.1_K4.1_C4.1_H4.1_A4.1_[A6T]_F4.1_T4.1 (ssRNA)
RNA: B1 RNA with G27A, A29U
B4: Ic_S4_P4E.1_K4.1_C4.1_H4.1_A4.1_[T5A]_F4.1_T4.1 (ssRNA)
RNA: B1 RNA with G27A, U28A
B5: Ia_S4_P4E.1_K4.1_C4.1_H4.1_A4.1_[A6C]_F4.1_T4.1 (ssRNA)
RNA: B1 RNA with G27A, A29C
B6: Ib_S4_P5E.1_K5.1_C5.1_H5.1_[G2A]_A5.1_F5.1_[A10T]_T5.1 (ssRNA)
RNA: UUUGACAACUGAUCGUUCUUUCUUAUAUUAUUUUUCUUUCUCGAUCAGUUGUCUUU
B7: Ib_S4_P5E.1_K5.1_C5.1_H5.1_A5.1_[T5C]_F5.1_[T9C]_T5.1 (ssRNA)
RNA: B6 RNA with A25G, U28C, U32C, U33A
B8: Ib_S4_P5E.1_K5.1_C5.1_H5.1_[T1C]_[G2T]_A5.1_F5.1_T5.1 (ssRNA)
RNA: B6 RNA with U24C, A25U, U33A
B9: Ic_S4_P5E.1_K5.1_C5.1_H5.1_A5.1_[T5C]_F5.1_[T8C]_T5.1 (ssRNA)
RNA: B6 RNA with A25G, U28C, U31C, U33A
B10: Ib_S4_P5E.1_K5.1_C5.1_H5.1_[A4C]_A5.1_F5.1_[A10C]_T5.1 (ssRNA)
RNA: B6 RNA with A25G, A27C, U33C
B11: Ib_S4_P5E.1_K5.1_C5.1_H5.1_A5.1_[T6C]_F5.1_[A10T]_T5.1 (ssRNA)
RNA: B6 RNA with A25G, U29C
B12: Ib_S4_P5E.1_K5.1_C5.1_H5.1_A5.1_[T6A]_F5.1_[T8A]_T5.1 (ssRNA)
RNA: B6 RNA with A25G, U29A, U31A, U33A
B13: Ib_S4_P5E.1_K5.1_C5.1_H5.1_[G2T]_[A4G]_A5.1_F5.1_T5.1 (ssRNA)
RNA: B6 RNA with A25U, A27G, U33A
B14: Ib_S4_P5E.1_K5.1_C5.1_H5.1_[A4G]_A5.1_F5.1_[A10C]_T5.1 (ssRNA)
RNA: B6 RNA with A25G, A27G, U33C
B15: Ib_S4_P5E.1_K5.1_C5.1_H5.1_A5.1_[A7G]_F5.1_[T9C]_T5.1 (ssRNA)
RNA: B6 RNA with A25G, A30G, U32C, U33A
B16: Ib_S4_P5E.1_K5.1_C5.1_H5.1_[T1C]_[A4T]_A5.1_F5.1_T5.1 (ssRNA)
RNA: B6 RNA with U24C, A25G, A27U, U33A
B17: Ib_S4_P5E.1_K5.1_C5.1_H5.1_[T1C]_A5.1_[T6C]_F5.1_T5.1 (ssRNA)
RNA: B6 RNA with U24C, A25G, U29C, U33A
B18: Ib_S4_P5E.1_K5.1_C5.1_H5.1_[T1C]_A5.1_[A7T]_F5.1_T5.1 (ssRNA)
RNA: B6 RNA with U24C, A25G, A30U, U33A
B19: Ib_S4_P5E.1_K5.1_C5.1_H5.1_[T1C]_A5.1_[T5G]_F5.1_T5.1 (ssRNA)
RNA: B6 RNA with U24C, A25G, U28G, U33A
B20: Ib_S4_P5E.1_K5.1_C5.1_H5.1_A5.1_[A7T]_F5.1_[A10T]_T5.1 (ssRNA)
RNA: B6 RNA with A25G, A30U
B21: Ib_S4_P5E.1_K5.1_C5.1_H5.1_[G2A]_[T3A]_A5.1_F5.1_T5.1 (ssRNA)
RNA: B6 RNA with U26A, U33A
B22: Ib_S4_P5E.1_K5.1_C5.1_H5.1_A5.1_[A7T]_F5.1_[T8C]_T5.1 (ssRNA)
RNA: B6 RNA with A25G, A30U, U31C, U33A
B23: Ib_S4_P5E.1_K5.1_C5.1_H5.1_A5.1_[A7C]_F5.1_[T8G]_T5.1 (ssRNA)
RNA: B6 RNA with A25G, A30C, U31G, U33A
B24: Ib_S4_P5E.1_K5.1_C5.1_H5.1_[T1A]_[T3C]_A5.1_F5.1_T5.1 (ssRNA)
RNA: B6 RNA with U24A, A25G, U26C, U33A
B25: Ib_S4_P5E.1_K5.1_C5.1_H5.1_A5.1_[A7C]_F5.1_[T9C]_T5.1 (ssRNA)
RNA: B6 RNA with A25G, A30C, U32C, U33A
B26: Ib_S4_P5E.1_K5.1_C5.1_H5.1_[T1C]_A5.1_[A7G]_F5.1_T5.1 (ssRNA)
RNA: B6 RNA with U24C, A25G, A30G, U33A
B27: Ib_S4_P5E.1_K5.1_C5.1_H5.1_A5.1_[A7G]_F5.1_[A10G]_T5.1 (ssRNA)
RNA: B6 RNA with A25G, A30G, U33G
B28: Ib_S4_P5E.1_K5.1_C5.1_H5.1_[T1G]_[A4C]_A5.1_F5.1_T5.1 (ssRNA)
RNA: B6 RNA with U24G, A25G, A27C, U33A
B29: Ib_S4_P5E.1_K5.1_C5.1_H5.1_A5.1_[A7T]_F5.1_[T8G]_T5.1 (ssRNA)
RNA: B6 RNA with A25G, A30U, U31G, U33A
B30: Ib_S4_P5E.1_K5.1_C5.1_H5.1_[T1A]_A5.1_[T6C]_F5.1_T5.1 (ssRNA)
RNA: B6 RNA with U24A, A25G, U29C, U33A
B31: Ib_S4_P5E.1_K5.1_C5.1_H5.1_[T3C]_[A4T]_A5.1_F5.1_T5.1 (ssRNA)
RNA: B6 RNA with A25G, U26C, A27U, U33A
B32: Ic_S4_P5E.1_K5.1_C5.1_H5.1_A5.1_[T6C]_F5.1_[T9A]_T5.1 (ssRNA)
RNA: B6 RNA with A25G, U29C, U32A, U33A
B33: Ib_S4_P5E.1_K5.1_C5.1_H5.1_A5.1_[T5C]_F5.1_[A10T]_T5.1 (ssRNA)
RNA: B6 RNA with A25G, U28C
B34: Ib_S4_P5E.1_K5.1_C5.1_H5.1_[A4T]_A5.1_F5.1_[A10T]_T5.1 (ssRNA)
RNA: B6 RNA with A25G, A27U
B35: Ib_S4_P5E.1_K5.1_C5.1_H5.1_A5.1_[T6A]_F5.1_[T8C]_T5.1 (ssRNA)
RNA: B6 RNA with A25G, U29A, U31C, U33A
B36: Ib_S4_P5E.1_K5.1_C5.1_H5.1_[G2C]_[A4G]_A5.1_F5.1_T5.1 (ssRNA)
RNA: B6 RNA with A25C, A27G, U33A
B37: Ib_S4_P5E.1_K5.1_C5.1_H5.1_[T3C]_[A4C]_A5.1_F5.1_T5.1 (ssRNA)
RNA: B6 RNA with A25G, U26C, A27C, U33A
B38: Ib_S4_P5E.1_K5.1_C5.1_H5.1_[T3G]_[A4C]_A5.1_F5.1_T5.1 (ssRNA)
RNA: B6 RNA with A25G, U26G, A27C, U33A
B39: Ib_S4_P5E.1_K5.1_C5.1_H5.1_[T3C]_A5.1_F5.1_[A10C]_T5.1 (ssRNA)
RNA: B6 RNA with A25G, U26C, U33C
B40: Ic_S4_P5E.1_K5.1_C5.1_H5.1_A5.1_[A7C]_F5.1_[A10T]_T5.1 (ssRNA)
RNA: B6 RNA with A25G, A30C
B41: Ib_S4_P5E.1_K5.1_C5.1_H5.1_[G2C]_A5.1_[T5A]_F5.1_T5.1 (ssRNA)
RNA: B6 RNA with A25C, U28A, U33A
B42: Ib_S4_P5E.1_K5.1_C5.1_H5.1_A5.1_[T5G]_F5.1_[T9A]_T5.1 (ssRNA)
RNA: B6 RNA with A25G, U28G, U32A, U33A
B43: Ib_S4_P5E.1_K5.1_C5.1_H5.1_A5.1_[T5G]_F5.1_[T8C]_T5.1 (ssRNA)
RNA: B6 RNA with A25G, U28G, U31C, U33A
B44: Ib_S4_P5E.1_K5.1_C5.1_H5.1_[T3G]_[A4T]_A5.1_F5.1_T5.1 (ssRNA)
RNA: B6 RNA with A25G, U26G, A27U, U33A
B45: Ib_S4_P5E.1_K5.1_C5.1_H5.1_[T1C]_[G2A]_A5.1_F5.1_T5.1 (ssRNA)
RNA: B6 RNA with U24C, U33A
B46: Ib_S4_P5E.1_K5.1_C5.1_H5.1_[T1A]_[A4G]_A5.1_F5.1_T5.1 (ssRNA)
RNA: B6 RNA with U24A, A25G, A27G, U33A
B47: Ib_S4_P5E.1_K5.1_C5.1_H5.1_A5.1_[A7T]_F5.1_[T9C]_T5.1 (ssRNA)
RNA: B6 RNA with A25G, A30U, U32C, U33A
B48: Ib_S4_P5E.1_K5.1_C5.1_H5.1_[G2C]_[A4T]_A5.1_F5.1_T5.1 (ssRNA)
RNA: B6 RNA with A25C, A27U, U33A
B49: Ib_S4_P5E.1_K5.1_C5.1_H5.1_[G2A]_[A4T]_A5.1_F5.1_T5.1 (ssRNA)
RNA: B6 RNA with A27U, U33A
B50: Ib_S4_P5E.1_K5.1_C5.1_H5.1_A5.1_[T5G]_F5.1_[A10G]_T5.1 (ssRNA)
RNA: B6 RNA with A25G, U28G, U33G
B51: Ib_S4_P5E.1_K5.1_C5.1_H5.1_[T1C]_A5.1_[T6A]_F5.1_T5.1 (ssRNA)
RNA: B6 RNA with U24C, A25G, U29A, U33A
B52: Ib_S4_P5E.1_K5.1_C5.1_H5.1_[T1C]_[T3C]_A5.1_F5.1_T5.1 (ssRNA)
RNA: B6 RNA with U24C, A25G, U26C, U33A
B53: Ib_S4_P5E.1_K5.1_C5.1_H5.1_A5.1_[A7G]_F5.1_[T8C]_T5.1 (ssRNA)
RNA: B6 RNA with A25G, A30G, U31C, U33A
B54: Ib_S4_P5E.1_K5.1_C5.1_H5.1_A5.1_[T5A]_F5.1_[A10C]_T5.1 (ssRNA)
RNA: B6 RNA with A25G, U28A, U33C
B55: Ib_S4_P5E.1_K5.1_C5.1_H5.1_A5.1_[T5A]_F5.1_[T8A]_T5.1 (ssRNA)
RNA: B6 RNA with A25G, U28A, U31A, U33A
B56: Ib_S4_P5E.1_K5.1_C5.1_H5.1_[A4C]_A5.1_F5.1_[A10T]_T5.1 (ssRNA)
RNA: B6 RNA with A25G, A27C
B57: Ib_S4_P5E.1_K5.1_C5.1_H5.1_A5.1_[A7T]_F5.1_[A10G]_T5.1 (ssRNA)
RNA: B6 RNA with A25G, A30U, U33G

Target: T1, PUF4 RNA-binding domain
Test: Mg; RNA-MaP; 20 mM Na-HEPES pH 7.4, 30 mM KOAc, 0.75 mM MgCl2, 0.1% Tween-20, 5% glycerol, 0.1 mg/mL BSA, 2 mM DTT; 25 C; 0.0125-409.6 nM protein
Settings: tags: N-His6-TEV cleaved; C-SNAP kept, Cy3B-labelled; label: tethered on chip by stalled RNA polymerase

Binder	Kd [nM]
B1	1.25
B2	0.303
B3	1.24
B4	1.69
B5	2.17
B6	259
B7	27.6
B8	> 2300
B9	3.13
B10	493
B11	7.7
B12	9.5
B13	492
B14	105
B15	393
B16	1050
B17	637
B18	370
B19	> 2300

Binder	Kd [nM]
B20	10.7
B21	2140
B22	3.12
B23	10.4
B24	> 2300
B25	56
B26	2200
B27	52.3
B28	> 2300
B29	3.74
B30	> 2300
B31	453
B32	1.47
B33	4.98
B34	119
B35	5.07
B36	455
B37	862
B38	1880

Binder	Kd [nM]
B39	1790
B40	13.8
B41	> 2300
B42	7.64
B43	13.1
B44	745
B45	1660
B46	1260
B47	69.4
B48	> 2300
B49	1440
B50	109
B51	1040
B52	> 2300
B53	14.9
B54	29.4
B55	13.8
B56	201
B57	9.13

— article PMC9352680, “A comprehensive thermodynamic model for RNA binding by the Saccharomyces cerevisiae Pumilio protein PUF4”
